assay: soluble on expression in E. coli; label from the status in PepcDB or PDB records

Question: With “MATLLRSLALFKRNKDKPPITSGSGGAIRGIKHIIIVPIPGDSSITTRSRLLDRLVRLIGNPDVSGPKLTGALIGILSLFVESPGQLIQRITDDPDVSIRLLEVVQSDQSQSGLTFASRGTNMEDEADQYFSHDDPISSDQSRFGWFENKEISDIEVQDPEGFNMILGTILAQIWVLLAKAVTAPDTAADSELRRWIKYTQQRRVVGEFRLERKWLDVVRNRIAEDLSLRRFMVALILDIKRTPGNKPRIAEMICDIDTYIVEAGLASFILTIKFGIETMYPALGLHEFAGELSTLESLMNLYQQMGETAPYMVILENSIQNKFSAGSYPLLWSYAMGVGVELENSMGGLNFGRSYFDPAYFRLGQEMVRRSAGKVSSTLASELGITAEDARLVSEIAMHTTEDKISRAVGPRQAQVSFLHGDQSENELPRLGGKEDRRVKQSRGEARESYRETGPSRASDARAAHLPTGTPLDIDTASESSQDPQDSRRSADALLRLQAMAGISEEQGSDTDTPIVYNDRNLLD” as the sequence, how does the “soluble on expression in E. coli” value read?
Answer: Its value is “not soluble”.

Question: Which “soluble on expression in E. coli” value does the source give for “MNTTEFDGISHAEGLCDKEFIGKAISYLYRYGQIYIGKKIEPYGIGSGQFPFLMRLYREDGINQESLSDYLKIDKGTTARAIQKLVDEGYVFRQRDEKDRRSYRVFLTEKGKKLEPDMKKIASEWGEILFSSFDDRQRREITNSLEIMFENGLKIM” here?
Answer: The value was “not soluble”.

Question: With “MGSDKIHHHHHHMSVSISEKTKQAYQHAVEQASVSLLRQPQNSMADELRLLAEQLQPNEKRDVYGGGSLINDFEDEVAELLGKPAALFLPTGTLAQPLALRVHADERQRNGVALHPTSHLMLHEHMGFEALWKLNGTTTGFADNPITLNDLKSVQTDDLASVLLELPMREIGGQLPNWDDLVMQSEWARQHNIAMHLDGARLWQVPAAYGCSLPEVCELFDSVYVSFYKDLGGISGAILAGSEGFIEQAKIWARRAGGNIITQYPQVLSARHGLKENLPIMPEAVNYARALGEALSALNGVRVNPETPQVAMFHLHFALKANELSEKITDYASNTGVVLLPLPRAEMNNEAICEVSIGRNAMSQPQSFWLRHFKAFLDTL” as the sequence, how does the “soluble on expression in E. coli” value read?
Answer: The value was “not soluble”.

Question: For “MGAVGRGRRMSERHLRRSTHKVGDITLGAVHRLNCHCGAVQIDLDLPHGLVDPRRCDCSMCRRRGAIVASVPLQGLHVRQGEDVLRLYQFNTHAAAHYFCGVCGIYTHHRRRSNPNEYGYNVGCLEGVNPYALNITVPVEDGIHHPADRVAPQLEHHHHHH”, which “soluble on expression in E. coli” value is on record?
Answer: Its value is “not soluble”.

Question: With “MIGILKKVFDVNQRQIKRMQKTVEQIDALESSIKPLTDEQLKGKTLEFKERLTKGETVDDLLPEAFAVVREAATRVLGMRPYGVQLMGGIALHEGNISEMKTGEGKTLTSTLPVYLNALTGKGVHVVTVNEYLAQRDANEMGQLHEFLGLTVGINLNSMSREEKQEAYAADITYSTNNELGFDYLRDNMVLYKEQCVQRPLHFAIIDEVDSILVDEARTPLIISGQAQKSTELYMFANAFVRTLENEKDYSFDVKTKNVMLTEDGITKAEKAFHIENLFDLKHVALLHHINQALRAHVVMHRDTDYVVQEGEIVIVDQFTGRLMKGRRYSEGLHQAIEAKEGVEIQNESMTLATITFQNYFRMYEKLSGMTGTAKTEEEEFRNIYNMNVIVIPTNKPIIRDDRADLIFKSMKGKFNAVVEDIVNRHKQGQPVLVGTVAIETSELISKMLTRKGVRHNILNAKNHAREADIIAEAGMKGAVTIATNMAGRGTDIKLGDDIKNIGLAVIGTERHESRRIDNQLRGRAGRQGDPGVTQFYLSMEDELMRRFGSDNMKAMMDRLGMDDSQPIESKMVSRAVESAQKRVEGNNYDARKQLLQYDDVLRQQREVIYKQRQEVMESENLRGIIEGMMKSTVERAVALHTQEEIEEDWNIKGLVDYLNTNLLQEGDVKEEELRRLAPEEMSEPIIAKLIERYNDKEKLMPEEQMREFEKVVVFRVVDTKWTEHIDAMDHLREGIHLRAYGQIDPLREYQMEGFAMFESMIASIEEEISRYIMKAEIEQNLERQEVVQGEAVHPSSDGEEAKKKPVVKGDQVGRNDLCKCGSGKKYKNCCGIGK” as the sequence, how does the “soluble on expression in E. coli” value read?
Answer: Its value is “not soluble”.

Question: For “RILYRHSNAMQHEYNQMMQSIDERKQYQVGKIKMGTGDAWWPLFVKQALNEHLTKQPSASTHVEFGNHLGLMDSLINEQIEFFIGHEIVGLSSKCDVTFIPLFQTVDAYFVSSNHPLLGKTVTEEMLHEYPALSVTYDAKKFAHVIDNPIPKQNERERQQLDDRPTYEVDSLLASIDVLKESVAVMSYTRHLQSYLESFGLRCLTMENEPNPGTVGIYRHRRETSESHLDLIAGITQRAKLLN”, which “soluble on expression in E. coli” value is on record?
Answer: The value was “not soluble”.

Question: For “MGSDKIHHHHHHRWIPGSRDFDSWLVTLHAQLLAEVDYPRELRMAQVMTEGLAQHEALQSAPVTLRVPHFWPEHCSTNVLTMDYVEGHRAASPEVAALPQSARNELGKAMLQLFFAEVFDLGLVQTDPNFGNYLINDDGTELTLLDFGSVFELDETVRTALCDTIVAGLTNDETRLELALVALGCLKPGAGESAKATFKAFIRNLLEPLRPPEALPPEHLNAEGLYCWGHSELVNRTGQQVARSLTNREFAIPSSDFAMVARKLTGVFTFIAVLDAEFNGHDIAAPYLDEVTAGGET”, which “soluble on expression in E. coli” value is on record?
Answer: The value was “not soluble”.

Question: With “MDYRVLLYYKYVTIDDPETFAAEHLKFCKEHHLKGRILVSTEGINGTLSGTKEDTDKYIEHMHADNRFADLTFKIDEAESHAFKKMHVRPRREIVALDLEEDINPREITGKYYSPKEFKAALEDENTVILDARNDYEYDLGHFRGAIRPDITRFRDLPEWVRNNKEQLDGKNIVTYCTGGIRCEKFSGWLVKEGFENVGQLHGGIATYGKDPETKGQYWDGKMYVFDERISVDVNQIDKTVIGKEHFDGTPCERYINCANPECNKQILVSEENEEKYLGACSYDCAKHERNRYVARHHISNEEWQRRLNNFKDVPEHTHA” as the sequence, how does the “soluble on expression in E. coli” value read?
Answer: Its value is “not soluble”.

Question: Which “soluble on expression in E. coli” value does the source give for “LGIDLLSYYIEAGSCMIYYNEKPYIDEFQQYVSDNDISTTDVEQYDEWMSEHDVAFYSVQEMGKVIYNKSNVDKLISPAKNMYDYRFTGSYELPVQFSDIEAEVFIYTGFTEKYY” here?
Answer: Its value is “not soluble”.

Question: With “GMDMKKHGLSIGINRIESVFFVTLKAIGTLTHEDYLVITPMLEGALSQVDQPKVSLFLDATELDGWDLRAAWDDLKLGLKHKSEFERVAILGNKDWQEWAAKIGSWFIAGEIKYFEDEDDALKWLRY” as the sequence, how does the “soluble on expression in E. coli” value read?
Answer: Its value is “soluble”.

Question: With “MGSDKIHHHHHHMFLEPFFTQTDETVTISPFQASEFAKRVAEDFNPIHDESAKRFCVPGDLLFALVLSHYGLSQKMQFKFEGMVGEGVCLNFPVEVGDSFPICDSRDKTYLSVSRQGDVSRCETQIESFVRSYVSFSGLNFIHVLVPMMREHGVMINPDRPLVIYESMAFDLTTLDFDQVALELSDARLSVDGKRGDVTLEFALISDGKQVGTGVKTLVMSGLRALDEAALDGMAQFYEERRATL” as the sequence, how does the “soluble on expression in E. coli” value read?
Answer: Its value is “not soluble”.

Question: For “LKPDPWADIETRFPVGSRHHARVRNFTNFGVFVEIEEGVDGLIHISDLSWTKKIKHPSEFTEVGADIEVQVIEIDKENRRLSLGHKQLEENPWDVFETVFTVGSIHEGTVIEVMDKGAVVSLPYGVEGFATPKHMVKEDGSQAVLEEKLPFKVIEFNKDAKRIIVSHSRVFEDEQKMAQREANAERKAEAKAAQKEAAAEAANPAQAVEKATLGDLGELAALKEKLSEN”, which “soluble on expression in E. coli” value is on record?
Answer: The value was “not soluble”.

Question: With “MGSDKIHHHHHHMSPPVRPVDHLIPEGAMTSFFDFAISQLPAATADRRGPAPDDIDAMLRRDSFAAALRLLAGSFIALYEGSPEMTTLFATRQSRLLCHALLALYFQKSTAEEGEIALTREDFGHLALRHGLASDRVAYVFFKEALKRGLTRPVDATEDQATGVVPSPPALAMLAQWYDVHFQALDLLDEGFRASRFIQRSETTLPHIHPHVSRAFLSHPEVRCPGPLSIIFNWFDAGGLLMDRLIAGIDRELPAEQGRRFTDVQTVTQLATSLSLSRSHVGRKLAAAELIGGIGWSGRRGRSALWISQGFYEEYARTQARKLLILDEALIGFV” as the sequence, how does the “soluble on expression in E. coli” value read?
Answer: Its value is “not soluble”.

Question: With “MGSDKIHHHHHHMEQINHQWLPHLSKEIVEDARGPEFDAYLVALEGWRRGLTLRWHTKDSEAFREIKTWFVDRPGKLFSLRLEEKTHYFFRTRGDKVTNEAVAIGADKEKTKEYLAKAGIPIPEGRRFVAEIEDDEIISYAAEIGYPLVVKPTDGSFGRGVVTNIEDEVTFAEQLRHVRHVLNYKDVIVERHVAGKDYRLYVVGDKVVAAIERIPANVVGNGKQTIQELIEAKNEERQKNPRLISCPIKLDQEMKNHLAIQGYGLDTIPEDGEMVFLTNKSNISIGGDPVDQLDSLPEEVKQLAVQALQAVPQLPHGAVDILYDDKQPVEEGAVVLELNPTAQIGSLVFPMKGIARDVPAAIIDYYFPETKGMNGQKSRFYFDFSDVLEPLVTKTASVTTVSAAPLGEVYGKKYTVTGDVQGIDYHRGLRKQAFERKLSGFVKNLENGNIEVIVMGTDPESVNDFKQAIFEDPERSDVVDVFEESWEEPVKVGFEVKADLKMQVDQLKKMKLELETVQKDLKEAERKNIKYKKSLTWRMTLPFRKTLDVLKYFKRK” as the sequence, how does the “soluble on expression in E. coli” value read?
Answer: The value was “not soluble”.

Question: For “MGSDKIHHHHHHMIIDAHIHCSGDEKVDDVLQALDQAQVDKAVVLAPFLSGPYSMHDSASLRSANQYLSRLIGHHTDRLIGFAVINPSLEGACQDLVSAHELGLHGLKMVPAGWYPYDDCARDVYETAARLKIPILFHSGIFIDGKSGRFCRPSFYEAIRDYPDLRVTLAHLGWPWSDEANAVGLIDLINGVPPDNSQFRFDISFGAPPVYRLEVLRKAIDVLTPDLLQFGSDVFLPCSADLIKSRIDEVLMLLERLEVDKSSRDRIMGGTAAAWLGIN”, which “soluble on expression in E. coli” value is on record?
Answer: Its value is “not soluble”.

Question: Which “soluble on expression in E. coli” value does the source give for “LLIGFWDCVTCHGSPVDICTAKPRDIPMNPMCIYRSPEKKATEDEGSEQKIPEATNRRVWELSKANSRFATTFYQHLADSKNDNDNIFLSPLSISTAFAMTKLGACNDTLQQLMEVFKFDTISEKTSDQIHFFFAKLNCRLYRKANKASKLVSANRLFGDKSLTFNETYQDISELVYGAKLQPLDFKENAEQSRAAINKWVSNKTEGRITDVIPSEAINELTVLVLVNTIYFKGLWKSKFSPENTRKELFYKADGESCSASMMYQEGKFRYRRVAEGTQVLELPFKGDDITMVLILPKPEKSLAKVEKELTPEVLQEWLDELEEMMLVVHMPRFRIEDGFSLKEQLQDMGLVDLFSPAASALPGIVAEGRDDLYVSDAFHKAFLEVNEEGSEAAASTAVVIAGRSLNPNRVTFKANRPFLVFIREVPLNTIIFMGRVANPCVK” here?
Answer: The value was “soluble”.

Question: Which “soluble on expression in E. coli” value does the source give for “MSLAVLGDVARLADVSTATVSRVYNEPDKVSPSVRERVLQAAAALNWIPNAAGRALASTRTHIAGAIIPTLDDQVFASQVAGMQAVFAERGITLFLGCSNYDPAQALIQVRAMLARGVEVIAIVGEAHPPELFDALKQARVPYAITYAYREGSPHHCIGFDNRAAFVAIAEHLLALGHRTFAAVIQPARDNDRVQARVAGIREALERHGIAVRPSHLHEGPATIAFGRQSLRAIWQGADERPTAIICGNDQLAIGVLLEAAELGIKVPQQLSVTGFDDVAIAQQIHPSLTTVRVDTAEIGRRAARYLLDVLDGKEAAESGLVQPELMVRESTAEGHHHHHH” here?
Answer: Its value is “soluble”.

Question: Which “soluble on expression in E. coli” value does the source give for “MTMVQVTLEVNGRQVAHEAPPRMHLGDFLRDQARLTGTHLGCEHGVCGACTVLVDGQPVRSCITYAVACEGRQVTTIEGYDGDPVMARLRAAFTKYHALQCGYCTPGMLTTSRDIVLRLPDADEARVRVELSGNLCRCTGYMGIVGAVMSVLRDLREQPDAAVQALRAAAADGRLPAPRGEQPIAFQPFTPSAPAAAQAAPRPAAAASPASGKGNQIVDAFTVPFPAAEVWAFMVDLPAVAACLPGAVIEETDGQRVKGKIAIKFGPMAAAFNGAARLERDEEAMRAVFRGAGQDSLSQSRATGDIAYQVEAVSENETRVKVDLQYALQGPLAQFSRSGLVQDFVRRMIADFGKNVTARLRQPGGEALPQAQFNPVAMFFSVLWMRVKRWFGRGGLEHHHHHH” here?
Answer: Its value is “not soluble”.
